Measured values from PMC8837605, “In vitro reconstitution of an efficient nucleotide excision repair system using mesophilic enzymes from Deinococcus radiodurans”.

Tests used:
drUvrA1 [1] = target: T1, drUvrA1 (Deinococcus radiodurans, UniProt Q46577 1-1016); experiment: fluorescence polarization; 2.5 mM Mg2+, 2.5 mM ATP; Hill 2.10; 50 mM Tris pH 7.5, 50 mM KCl, 5 mM DTT, 0.01% Tween 20, 2.5 mM MgCl2, 2.5 mM ATP, 0.1 mg/mL BSA; room temperature; 2 nM DNA, 0-1 uM drUvrA1 (dimer); settings: protein: recombinant; tags: N-terminal His-tag removed by TEV; chain copies: 2; label: 5'-ATTO633 on strand 1; internal fluorescein-dT; blunt
T1 sequence (Q46577 whole entry): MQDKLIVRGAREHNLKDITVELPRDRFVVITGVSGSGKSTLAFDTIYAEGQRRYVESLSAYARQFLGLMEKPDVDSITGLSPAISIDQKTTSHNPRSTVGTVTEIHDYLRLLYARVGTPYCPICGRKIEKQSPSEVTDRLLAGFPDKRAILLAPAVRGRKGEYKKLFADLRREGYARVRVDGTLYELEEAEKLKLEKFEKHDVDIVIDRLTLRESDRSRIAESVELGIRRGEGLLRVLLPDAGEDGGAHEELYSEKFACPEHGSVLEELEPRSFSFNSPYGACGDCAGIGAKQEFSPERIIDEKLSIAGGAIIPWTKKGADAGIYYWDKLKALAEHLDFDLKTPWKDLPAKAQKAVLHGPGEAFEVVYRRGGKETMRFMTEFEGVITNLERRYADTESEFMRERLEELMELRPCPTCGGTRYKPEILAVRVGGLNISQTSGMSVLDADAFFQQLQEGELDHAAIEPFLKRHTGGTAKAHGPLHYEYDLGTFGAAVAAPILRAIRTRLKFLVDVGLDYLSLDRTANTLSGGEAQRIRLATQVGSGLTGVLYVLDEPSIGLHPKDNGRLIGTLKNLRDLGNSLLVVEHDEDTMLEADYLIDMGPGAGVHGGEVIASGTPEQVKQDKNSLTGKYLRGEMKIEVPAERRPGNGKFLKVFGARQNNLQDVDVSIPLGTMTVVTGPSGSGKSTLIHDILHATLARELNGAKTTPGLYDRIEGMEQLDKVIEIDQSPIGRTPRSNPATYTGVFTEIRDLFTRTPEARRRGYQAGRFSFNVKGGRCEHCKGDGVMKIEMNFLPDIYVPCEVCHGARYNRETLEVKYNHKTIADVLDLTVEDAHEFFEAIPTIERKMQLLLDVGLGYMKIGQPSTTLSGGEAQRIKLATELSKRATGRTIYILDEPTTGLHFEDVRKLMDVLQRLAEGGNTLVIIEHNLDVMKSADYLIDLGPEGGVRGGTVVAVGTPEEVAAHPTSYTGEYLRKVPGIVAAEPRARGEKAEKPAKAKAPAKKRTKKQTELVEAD

drUvrA1 [2] = target: T1, drUvrA1; experiment: fluorescence polarization; 2.5 mM Mg2+, 2.5 mM ATP; Hill 1.34; 50 mM Tris pH 7.5, 50 mM KCl, 5 mM DTT, 0.01% Tween 20, 2.5 mM MgCl2, 2.5 mM ATP, 0.1 mg/mL BSA; room temperature; 2 nM DNA, 0-1 uM drUvrA1 (dimer); settings: protein: recombinant; tags: N-terminal His-tag removed by TEV; chain copies: 2; label: 5'-ATTO633 on strand 1; internal fluorescein-dT; blunt
drUvrA1 [3] = target: T1, drUvrA1; experiment: fluorescence polarization; 2.5 mM Mg2+, 2.5 mM ATP; Hill 0.97; 50 mM Tris pH 7.5, 50 mM KCl, 5 mM DTT, 0.01% Tween 20, 2.5 mM MgCl2, 2.5 mM ATP, 0.1 mg/mL BSA; room temperature; 2 nM DNA, 0-1 uM drUvrA1 (dimer); settings: protein: recombinant; tags: N-terminal His-tag removed by TEV; chain copies: 2; label: 5'-FAM on strand 1; blunt
drUvrA1 [4] = target: T1, drUvrA1; experiment: fluorescence polarization; 2.5 mM Mg2+, 2.5 mM ATP; Hill 0.92; 50 mM Tris pH 7.5, 50 mM KCl, 5 mM DTT, 0.01% Tween 20, 2.5 mM MgCl2, 2.5 mM ATP, 0.1 mg/mL BSA; room temperature; 2 nM DNA, 0-1 uM drUvrA1 (dimer); settings: protein: recombinant; tags: N-terminal His-tag removed by TEV; chain copies: 2; label: 5'-FAM on strand 1; blunt

B1: F26-seq2 (dsDNA)
DNA 1: GTTAGCGAACGATACCTTCAGTAGATCAAGTCCTAGCTGACCGGTTCGGC
DNA 2: GCCGAACCGGTCAGCTAGGACTTGATCTACTGAAGGTATCGTTCGCTAAC
modifications: fluorescein-conjugated dT at position 26 of strand 1
Q: How did the Kd (drUvrA1 [1]) turn out when B1 was run?
A: The Kd was 9 ± 0.5 nM.

B2: F26-seq1 (dsDNA)
DNA 1: GACTACGTACTGTTACGGCTCCATCTCTACCGCAATCAGGCCAGATCTGC
DNA 2: GCAGATCTGGCCTGATTGCGGTAGAGATGGAGCCGTAACAGTACGTAGTC
modifications: fluorescein-conjugated dT at position 26 of strand 1
Q: B2 was tested. Which Kd (drUvrA1 [2]) did it give?
A: The Kd was 9 ± 0.7 nM.

B3: B26-seq1 (dsDNA)
DNA 1: B2 DNA 1
DNA 2: B2 DNA 2
modifications: biotin-conjugated dT at position 26 of strand 1
Q: With B3 as the binder, how does the Kd (drUvrA1 [3]) read?
A: The Kd was 128 ± 15 nM.

B4: 5'-FAM-seq1 (seq1-FAM) (dsDNA)
DNA 1: B2 DNA 1
DNA 2: B2 DNA 2
Q: How did the Kd (drUvrA1 [4]) turn out when B4 was run?
A: The Kd was 85 ± 12 nM.
